Data as given in PMC11634027.

Columns and labels:
[1] = molecular target: Ds-TM-ICD-ΔD-II:V5 (Drosophila); experiment: co-IP; S2 cells co-transfected; lysed in RIPA buffer; V5-tagged Ds construct precipitated with V5-Trap magnetic agarose beads, 1 h; blots with anti-V5 and anti-FLAG (Figs 4E, 5G, 6D,F, 8K)
[2] = molecular target: Ds-TM-ICD-ΔD-III:V5 (Drosophila); experiment: as above
[3] = molecular target: Ds-TM-ICD-ΔD-II:V5 (Drosophila); experiment: co-IP; S2 cells co-transfected; lysed in RIPA buffer; results in supplementary figures (S6-S9) or without a figure; which beads (V5-Trap or Fab-Trap) is not told in what was shown
[4] = molecular target: Ds-TM-ICD-ΔD-III:V5 (Drosophila); experiment: as above

## MyoID:FLAG (from UniProt Q23978 1-1011) (natural protein)
[1]
  co-precipitation relative to control (Ds-ICD:V5): 57%
[2]
  co-precipitation relative to control (Ds-ICD:V5): 40%

## FLAG:Lft (Lowfat) (from UniProt Q9VKY1 1-268) (natural protein)
[1]
  co-precipitation relative to Ds-ICD full length: 15%

## Sple-N:FLAG (from UniProt A1Z6W3 1-349) (domain or fragment)
[3]
  co-precipitation relative to Ds-ICD full length: 30%
[4]
  co-precipitation relative to Ds-ICD full length: 35%
